We go through three proteins from paper doi:10.1101/2023.03.06.531442 (bioRxiv, 2023).

Data set [1] deals with the molecule itself. The data set can be described thus: cryo-EM structure.
Data set [2] concerns the molecule itself. Put plainly: TIRF microscopy of assembled microtubules.

B1: mouse α-tubulin isotype α1C (natural protein)
chain: MRECISIHVGQAGVQIGNACWELYCLEHGIQPDGQMPSDKTIGGGDDSFNTFFSETGAGKHVPRAVFVDLEPTVIDEVRTGTYRQLFHPEQLITGKEDAANNYARGHYTIGKEIIDLVLDRIRKLADQCTGLQGFLVFHSFGGGTGSGFTSLLMERLSVDYGKKSKLEFSIYPAPQVSTAVVEPYNSILTTHTTLEHSDCAFMVDNEAIYDICRRNLDIERPTYTNLNRLISQIVSSITASLRFDGALNVDLTEFQTNLVPYPRIHFPLATYAPVISAEKAYHEQLTVAEITNACFEPANQMVKCDPRHGKYMACCLLYRGDVVPKDVNAAIATIKTKRTIQFVDWCPTGFKVGINYQPPTVVPGGDLAKVQRAVCMLSNTTAIAEAWARLDHKFDLMYAKRAFVHWYVGEGMEEGEFSEAREDMAALEKDYEEVGADSAEGDDEGEEY
On to B1, for which the binding result in data set [1] is reported as “binds”.

B2: mouse α-tubulin isotype α4A (natural protein)
chain: MRECISVHVGQAGVQMGNACWELYCLEHGIQPDGQMPSDKTIGGGDDSFTTFFCETGAGKHVPRAVFVDLEPTVIDEIRNGPYRQLFHPEQLITGKEDAANNYARGHYTIGKEIIDPVLDRIRKLSDQCTGLQGFLVFHSFGGGTGSGFTSLLMERLSVDYGKKSKLEFSIYPAPQVSTAVVEPYNSILTTHTTLEHSDCAFMVDNEAIYDICRRNLDIERPTYTNLNRLISQIVSSITASLRFDGALNVDLTEFQTNLVPYPRIHFPLATYAPVISAEKAYHEQLSVAEITNACFEPANQMVKCDPRHGKYMACCLLYRGDVVPKDVNAAIAAIKTKRSIQFVDWCPTGFKVGINYQPPTVVPGGDLAKVQRAVCMLSNTTAIAEAWARLDHKFDLMYAKRAFVHWYVGEGMEEGEFSEAREDMAALEKDYEEVGIDSYEDEDEGEE
As to B2, in data set [1], the binding result is listed as “binds”.

B3: recombinant mouse α4A/β2A tubulin heterodimer (complex)
chain 1: B2 chain
chain 2: […]
As to B3, the binding result in data set [2] is given as “binds”.
